Experiment: Determination of S from retention time shift Δ relative to P3 at two gradient slopes, nano-RP-HPLC MS of spiked tryptic digest
Assay type: physicochemical
Settings: experimental S value, LC-MS runs of model peptide mixture
Experimental: Proteins and protein digestion. Tryptic digests of two different protein mixtures were utilized. The “test peptide mixture” contained human proteins: albumin, transferrin, fibrinogen. The “model peptide mixture” contained bovine proteins: albumin, transferrin, fibrinogen, catalase. Equimolar mixtures of the proteins were prepared, reduced with DTT, alkylated with iodoacetamide and digested with sequencing-grade modified trypsin (Promega, Madison, Wis.). Prior to nano-LC MS/MS analysis, mixtures were diluted with buffer A (0.1% formic acid in water) and spiked with the 6 standard peptides P1-P6^24 for test mixture and the set of 11 model peptides (described elsewhere^23) for a model mixture. All dilutions were performed to provide an injection of ˜100 fmole of each component into the nanoRP-HPLC MS system.
Chromatography. All chromatographic experiments were conducted at a controlled temperature of 22-23° C. For isocratic measurement of the slope values, a micro-Agilent 1100 Series system (Agilent Technologies, Wilmington, Del.), was used with a 1 mm×100 mm 5 μm Luna C18(2) (Phenomenex, Torrance, Calif.) column and a UV detector operated at 214 nm. Both eluents A (water) and B (acetonitrile) contained 0.1% formic acid as ion-pairing modifier. Stock solutions of the 11 standard peptides (˜1 mg/ml) were prepared by dissolving each peptide in 1 ml of 0.1% FA in water or a 20% acetonitrile solution. Ten microliters of sample was injected. Individual peptides were diluted to provide ˜0.5-1 μg injection of each component using a 10 μl loop. The dead volume of the column and connecting tubings was determined by injecting a non-retained compound (water) and measuring the elution time of the negative peak at a 150 μL/min flow rate. Retention factors for isocratic elution were calculated using the formula: k=(tR−t0)/t0c; where tR is the retention time, t0 is the system (column and tubings) dead time, and t0c is the column dead time. Additional details of measuring S-values via constructing log k vs. φ plots are provided elsewhere.^24 The nano-LC MS/MS experiments were conducted using splitless Tempo LC system (Eksigent, Dublin, Calif.) with 20 μL sample injection via a 300 μm×5 mm PepMap100 (Dionex, Sunnyvale, Calif.) trap-column and a 100 μm×200 mm analytical column packed with 5 μm Luna C18(2) (Phenomenex, Torrance, Calif.). Tryptic digests of the mixtures were spiked with calibrating peptides (see Table 1) as described above, injected on the trap-column using buffer A as a carrier and separated using 0.1875, 0.375 and 0.75 percent acetonitrile per minute linear gradients starting from 0.5% acetonitrile at 500 nL/min flow rate. The composition of both eluents A and B was identical to one described above for normal-flow system. Gradient programs consisted of a 0.5-40% linear increase of buffer B in 213.2, 106.6 and 53.3 minutes, respectively. After each run the gradient columns were washed with 80% B for 3 minutes and equilibrated with the starting A:B ratio for 18 minutes.
Mass spectrometry. A QStar Elite mass spectrometer (Applied Biosystems, Foster City, Calif.) equipped with a MicrolonSpray II source was used in standard MS/MS information dependent acquisition (IDA) mode for LC-ESI analyses. Protein identification was performed using Protein Pilot 3.0 (Applied Biosystems, Foster City, Calif.) with a restricted database containing target protein sequences and the sequences of standard peptides. Retention times of identified species (peak maxima) were assigned manually.
These two ways of measurement have been combined to provide a highly accurate and fast way of determining S for an extensive sets of peptides (see FIG. 3). First, precise isocratic measurement of S is performed in normal flow conditions with UV detection for a set of synthetic “S-calibrating” peptides. […]

Row | Substance | Slope (experimental)
1 | NTPEKGYLAVAVVK | 34.392
2 | ETTVFENLPEK | 29.323
3 | LLVAAHFR | 31.212
4 | ILESGPFVSCVKK | 34.299
5 | FCLFK [tryptic peptide detected in the model peptide mixture] | 21.68
6 | YAAELHLVHWNTK | 36.188
7 | LLGGSLSSLHAAFR | 34.021
8 | AMTNLR | 32.841
9 | LESDVSTQMEYCR | 35.968
10 | LNSLTVGPR | 30.791
11 | LAGGSASSADAAFR | 34.509
12 | LLHAAHFR | 39.794
13 | LCALCAGDDQGLDK | 33.517
14 | SMMEEIMK | 25.394
15 | IQALLDK | 26.395
16 | LAGSASAHAFR | 40.64
17 | ECCHGDLLECADDRADLAK | 40.256
18 | DNPQTHYYAVAVVKK | 39.552
19 | LLHLAHFR | 33.837
20 | KTYDSYLGDDYVR | 35.968
21 | LLSLLHFR | 28.039
22 | RLCENIAGHLK | 40.229

Row | Substance | Slope (experimental)
23 | NECFLSHKDDSPDLPK | 41.14
24 | KYAAELHLVHWNTK | 39.205
25 | GGWTVIQNR | 26.957
26 | LAGSASADAFR | 32.092
27 | LLHLLHFR | 31.51
28 | VIEQVQR | 38.258
29 | LAHEDPDYGLR | 36.832
30 | VVWCAVGPEEQK | 29.603
31 | APVDAFKECHLAQVPSHAVVAR | 46.264
32 | RPCFSALTPDETYVPK | 38.129
33 | LLLLLDFR | 22.983
34 | VWPHGDYPLIPVGK | 34.183
35 | ECHLAQVPSHAVVAR | 44.148
36 | VPQVSTPTLVEVSR | 33.745
37 | LCENIAGHLK | 37.285
38 | DNPQTHYYAVAVVK | 34.815
39 | LLSAAHFR | 32.998
40 | LCVLHEK | 34.16
41 | TSTADYASFK | 30.833
42 | YETLISTHESTIR | 36.09
43 | AIQISYNPDQPSKPNNIESATK | 42.444
44 | WDPYK | 26.36

Row | Substance | Slope (experimental)
45 | WQWR | 22.398
46 | ETTVFENLPEKADR | 34.533
47 | LAGGGSASSSAHAAAFR | 44.118
48 | LLVLAHFR | 28.115
49 | SILENLR | 24.865
50 | RAFALECIR | 31.043
51 | VYCDMK | 35.652
52 | EPYFGYSGAFK | 28.713
53 | TYDSYLGDDYVR | 31.66
54 | THFSGDVQR | 42.53
55 | LFAYPDTHR | 31.897
56 | DGTRKPVTDAENCHLAR [tryptic peptide of the model peptide mixture, 5 positively charged groups] | 50.359
57 | LLIEMEDWK | 26.865
58 | LRDSLFNYQK | 31.66
59 | KEEAPSLRPVPPPISGGGYR | 42.646
60 | NTVDSVSR | 40.092
61 | MSTITGPVPR | 32.509
62 | EYEATLEECCAK | 35.459
63 | VFEHIGK | 34.229
64 | CGLVPVLAENYK | 27.604
65 | LQDTLVR | 29.045
66 | TPIAVR | 33.313

Row | Substance | Slope (experimental)
67 | CLQDGAGDVAFVK | 31.382
68 | GSNFQLDQLQGR | 30.314
69 | LRPVAAEIYGTK | 34.815
70 | ANEGLTWNSLK | 27.455
71 | LLGSLSLDAFR | 28.402
72 | FNSANDDNVTQVR | 38.415
73 | KDMDKVETFLR | 34.768
74 | NLNREDFR | 36.957
75 | LSQKFPK | 38.913
76 | FKDLGEEHFK | 38.336
77 | QNCDQFEK | 36.657
78 | VGDANPALQK | 38.388
79 | TVMENFVAFVDK | 28.849
80 | LVTDLTK | 28.077
81 | AFALECIR | 26.057
82 | KPVTDAENCHLAR | 48.023
83 | RWQWR | 27.269
84 | NIVELMR | 24.282
85 | LLGGGSLSSSLDAAAFR | 32.333
86 | TFYLK | 22.874
87 | AEFVEVTK | 29.046

Same assay, conditions: experimental S, LC-MS runs of model peptide mixture, formic acid

Row | Substance | Slope (experimental)
88 | KGSNFQLDQLQGR | 33.883
89 | KENFEVLCK | 27.567
90 | TCVADESHAGCEK | 47.601
91 | HSTVFDNLPNPEDR | 34.439
92 | ALLEMQQTK | 26.288
93 | DKDDFFTR | 25.342
94 | CLVEK | 27.661
95 | VDSALYLGSR | 27.122
96 | AWSVAR | 26.993
97 | GRQNQVQDNENVVNEYSSHLEK | 42.444
98 | LLCLDGTR | 25.325
99 | DLLFK [tryptic peptide detected in the model peptide mixture] | 18.223
100 | SEDGSDCGDADFDWHHTFPSR | 37.158
101 | ELLIDNEK | 25.018
102 | DSADGFLK | 22.49
103 | SHCIAEVEK | 41.223
104 | DQTVIQNTDGNNNEAWAK | 34.721
105 | GACLLPK | 25.811
106 | GTGKECVPNSNER | 48.911
107 | DFPIANGER | 26.539
108 | VTALYEGFTVQNEANK | 30.77
109 | TGLAPEFAALGESGSSSSK | 28.402
110 | LAIGEGQQHQLGGAK | 39.74
111 | ECCDKPLLEK | 35.555

Row | Substance | Slope (experimental)
112 | NYELLCGDNTR | 27.868
113 | VTGENDKYR [moderately sized, hydrophilic tryptic species of the model peptide mixture] | 49.044
114 | DQLVDMK | 25.899
115 | KPPDADGCLHADPDLGVLCPTGCK | 40.448
116 | DDPHACYSTVFDKLK | 35.483
117 | LAGGGSASSSADAAAFR | 35.894
118 | LGGGGGGDFR | 31.043
119 | FYTEDGNVVOLVGNNTPIFFIR (FYTEDGNWDLVGNNTPIFFIR) | 31.467
120 | KNYELLCGDNTR | 33.631
121 | CGLVPVLAENRK | 30.745
122 | ARPATATVGQK | 51.675
123 | AVVQDPALKPLALVYGEATSR | 35.627
124 | ECVPNSNER | 44.66
125 | NCPDKFCLFK | 28.518
126 | NYELLCGDNTRK | 31.767
127 | KANEGLTWNSLKDK | 35.507
128 | SIEDLR | 28.058
129 | ANEGLTWNSLKDK | 32.686
130 | INLLQK | 24.664
131 | KQTALVELLK | 27.642
132 | GEADALNLDGGYIYTAGK | 31.382
133 | FDEFFSAGCAPGSPR | 28.654
134 | SLHTLFGDELCK | 30.438
135 | CCAADDKEACFAVEGPK | 38.207

Same assay, conditions: model peptide mixture (tryptic digest of bovine proteins), 0.75 and 0.1875% acetonitrile per minute gradients, formic acid, S from Δ vs. S curve of S-calibrating peptides

Row | Substance | experimental S-value
136 | FCLFK [tryptic peptide detected in the model peptide mixture] | 21.7
137 | DLLFK [tryptic peptide detected in the model peptide mixture] | 18.2
138 | VTGENDKYR [moderately sized, hydrophilic tryptic species of the model peptide mixture] | 49.0
139 | DGTRKPVTDAENCHLAR [tryptic peptide of the model peptide mixture, 5 positively charged groups] | 50.4

From US8620595B2, “Methods for determining the retention of peptides in reverse phase chromatography using linear solvent strength theory” (University of Manitoba, priority 2010, dated 2013)
